Source: patent US20160272683A1 (Novo Nordisk, published 2016)
Numbered stars: 1 amine (or outer) side, 2 acyl side, 3 side chain; on linkers, the order of the positions; unused ones are H or OH. Side chains are listed from the residue outwards. Ends that are not written are not given here. * marks the point of attachment. C20 diacid = O=C(O)CCCCCCCCCCCCCCCCCCC(=O)*; C18 diacid = O=C(O)CCCCCCCCCCCCCCCCC(=O)*; C16 diacid = O=C(O)CCCCCCCCCCCCCCC(=O)*; γGlu = O=C(O)[C@H](CCC(=O)[*:2])N[*:1]; C14 diacid = O=C(O)CCCCCCCCCCCCC(=O)*; AEEA = NCCOCCOCC(=O)O

T1: human amylin receptor (amylin 3(a) receptor: human calcitonin receptor with RAMP-3) (human, UniProt P30988 25-474; O60896 24-148, limits assumed)
T1 construct: whole, on cells; Assay V: membranes of the Amylin 3(a)/CRE-luc BHK cells on SPA beads; also called hAmylin-R
T1 sequence (looked up) 1: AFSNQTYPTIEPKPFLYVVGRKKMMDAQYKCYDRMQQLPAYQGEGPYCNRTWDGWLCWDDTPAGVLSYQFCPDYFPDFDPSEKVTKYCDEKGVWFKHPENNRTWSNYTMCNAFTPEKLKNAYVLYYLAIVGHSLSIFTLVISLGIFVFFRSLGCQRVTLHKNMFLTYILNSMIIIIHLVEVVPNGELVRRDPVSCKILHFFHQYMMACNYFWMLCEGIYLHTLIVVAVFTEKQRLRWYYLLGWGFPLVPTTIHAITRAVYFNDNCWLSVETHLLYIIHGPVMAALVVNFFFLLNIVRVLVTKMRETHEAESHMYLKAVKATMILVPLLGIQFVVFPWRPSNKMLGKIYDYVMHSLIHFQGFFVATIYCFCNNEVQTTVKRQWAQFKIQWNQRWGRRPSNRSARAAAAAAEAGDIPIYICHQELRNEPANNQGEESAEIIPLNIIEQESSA
T1 sequence (looked up) 2: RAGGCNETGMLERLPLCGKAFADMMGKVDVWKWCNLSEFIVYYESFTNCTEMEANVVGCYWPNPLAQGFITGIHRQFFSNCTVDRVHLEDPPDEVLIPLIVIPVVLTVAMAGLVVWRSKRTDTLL

T2: human calcitonin receptor (human, UniProt P30988 25-474)
T2 construct: whole, on cells; Assay VII: membranes on SPA beads; also called hCT-R; hCTR
T2 sequence (looked up): T1 sequence (looked up) 1

B1: [N-terminal(C20 diacid-gGlu-2xOEG), des1, 30S, 31G]mimylin (peptide)
peptide: {C20 diacid-γGlu-AEEA-AEEA}-ASELSTAALGRLSAELHELATLPRTETGSGSP-NH2
notes: mimylin derivative; des1 = residue 1 deleted; also called Ex. #42; 42
B2: [N-terminal(C14 diacid), des1, 30S, 31G]mimylin (peptide)
peptide: {C14 diacid}-ASELSTAALGRLSAELHELATLPRTETGSGSP-NH2
notes: mimylin derivative; des1 = residue 1 deleted; also called Ex. #51; 51
B3: [N-terminal(C20 diacid-gGlu-3xOEG), des1, 30S, 31G]mimylin (peptide)
peptide: {C20 diacid-γGlu-AEEA-AEEA-AEEA}-ASELSTAALGRLSAELHELATLPRTETGSGSP-NH2
notes: mimylin derivative; des1 = residue 1 deleted; also called Ex. #43; 43
B4: [N-terminal(C20 diacid-gGlu), des1, 9V, 15Q, 21Q, 23Y, 30S, 31G, 32T, 33Y]mimylin (peptide)
peptide: {C20 diacid-γGlu}-ASELSTAVLGRLSQELHELQTYPRTETGSGTY-NH2
SMILES: CC(C)C[C@H](NC(=O)[C@H](CCCNC(=N)N)NC(=O)CNC(=O)[C@H](CC(C)C)NC(=O)[C@@H](NC(=O)[C@H](C)NC(=O)[C@@H](NC(=O)[C@H](CO)NC(=O)[C@H](CC(C)C)NC(=O)[C@H](CCC(=O)O)NC(=O)[C@H](CO)NC(=O)[C@H](C)NC(=O)CC[C@H](NC(=O)CCCCCCCCCCCCCCCCCCC(=O)O)C(=O)O)[C@@H](C)O)C(C)C)C(=O)N[C@@H](CO)C(=O)N[C@@H](CCC(N)=O)C(=O)N[C@@H](CCC(=O)O)C(=O)N[C@@H](CC(C)C)C(=O)N[C@@H](Cc1c[nH]cn1)C(=O)N[C@@H](CCC(=O)O)C(=O)N[C@@H](CC(C)C)C(=O)N[C@@H](CCC(N)=O)C(=O)N[C@H](C(=O)N[C@@H](Cc1ccc(O)cc1)C(=O)N1CCC[C@H]1C(=O)N[C@@H](CCCNC(=N)N)C(=O)N[C@H](C(=O)N[C@@H](CCC(=O)O)C(=O)N[C@H](C(=O)NCC(=O)N[C@@H](CO)C(=O)NCC(=O)N[C@H](C(=O)N[C@@H](Cc1ccc(O)cc1)C(N)=O)[C@@H](C)O)[C@@H](C)O)[C@@H](C)O)[C@@H](C)O
notes: mimylin derivative; des1 = residue 1 deleted
B5: [N-terminal(C14 diacid-gGlu), des1, 30S, 31G]mimylin (peptide)
peptide: {C14 diacid-γGlu}-ASELSTAALGRLSAELHELATLPRTETGSGSP-NH2
notes: mimylin derivative; des1 = residue 1 deleted; also called Ex. #50; 50
B6: [N-terminal(C18 diacid-gGlu), des1, 30S, 31G]mimylin (peptide)
peptide: {C18 diacid-γGlu}-ASELSTAALGRLSAELHELATLPRTETGSGSP-NH2
notes: mimylin derivative; des1 = residue 1 deleted; also called Ex. #46; 46
B7: [N-terminal(C20 diacid-gGlu), des1, 4Q, 9V, 15Q, 16R, 19R, 21Q, 23Y, 27Q, 30S, 31Q, 32T, 33Y]mimylin (peptide)
peptide: {C20 diacid-γGlu}-ASQLSTAVLGRLSQRLHRLQTYPRTQTGSQTY-NH2
SMILES: CC(C)C[C@H](NC(=O)[C@H](CCCNC(=N)N)NC(=O)CNC(=O)[C@H](CC(C)C)NC(=O)[C@@H](NC(=O)[C@H](C)NC(=O)[C@@H](NC(=O)[C@H](CO)NC(=O)[C@H](CC(C)C)NC(=O)[C@H](CCC(N)=O)NC(=O)[C@H](CO)NC(=O)[C@H](C)NC(=O)CC[C@H](NC(=O)CCCCCCCCCCCCCCCCCCC(=O)O)C(=O)O)[C@@H](C)O)C(C)C)C(=O)N[C@@H](CO)C(=O)N[C@@H](CCC(N)=O)C(=O)N[C@@H](CCCNC(=N)N)C(=O)N[C@@H](CC(C)C)C(=O)N[C@@H](Cc1c[nH]cn1)C(=O)N[C@@H](CCCNC(=N)N)C(=O)N[C@@H](CC(C)C)C(=O)N[C@@H](CCC(N)=O)C(=O)N[C@H](C(=O)N[C@@H](Cc1ccc(O)cc1)C(=O)N1CCC[C@H]1C(=O)N[C@@H](CCCNC(=N)N)C(=O)N[C@H](C(=O)N[C@@H](CCC(N)=O)C(=O)N[C@H](C(=O)NCC(=O)N[C@@H](CO)C(=O)N[C@@H](CCC(N)=O)C(=O)N[C@H](C(=O)N[C@@H](Cc1ccc(O)cc1)C(N)=O)[C@@H](C)O)[C@@H](C)O)[C@@H](C)O)[C@@H](C)O
notes: mimylin derivative; des1 = residue 1 deleted; also called Ex. #132; 132
B8: [N-terminal(C18 diacid-gGlu-2xOEG), des1, 4G, 9V, 15Q, 21Q, 23Y, 30S, 31G, 32T, 33Y]mimylin (peptide)
peptide: {C18 diacid-γGlu-AEEA-AEEA}-ASGLSTAVLGRLSQELHELQTYPRTETGSGTY-NH2
SMILES: CC(C)C[C@H](NC(=O)CNC(=O)[C@H](CO)NC(=O)[C@H](C)NC(=O)COCCOCCNC(=O)COCCOCCNC(=O)CC[C@H](NC(=O)CCCCCCCCCCCCCCCCC(=O)O)C(=O)O)C(=O)N[C@@H](CO)C(=O)N[C@H](C(=O)N[C@@H](C)C(=O)N[C@H](C(=O)N[C@@H](CC(C)C)C(=O)NCC(=O)N[C@@H](CCCNC(=N)N)C(=O)N[C@@H](CC(C)C)C(=O)N[C@@H](CO)C(=O)N[C@@H](CCC(N)=O)C(=O)N[C@@H](CCC(=O)O)C(=O)N[C@@H](CC(C)C)C(=O)N[C@@H](Cc1c[nH]cn1)C(=O)N[C@@H](CCC(=O)O)C(=O)N[C@@H](CC(C)C)C(=O)N[C@@H](CCC(N)=O)C(=O)N[C@H](C(=O)N[C@@H](Cc1ccc(O)cc1)C(=O)N1CCC[C@H]1C(=O)N[C@@H](CCCNC(=N)N)C(=O)N[C@H](C(=O)N[C@@H](CCC(=O)O)C(=O)N[C@H](C(=O)NCC(=O)N[C@@H](CO)C(=O)NCC(=O)N[C@H](C(=O)N[C@@H](Cc1ccc(O)cc1)C(N)=O)[C@@H](C)O)[C@@H](C)O)[C@@H](C)O)[C@@H](C)O)C(C)C)[C@@H](C)O
notes: mimylin derivative; des1 = residue 1 deleted; also called Ex. #121; 121
B9: [N-terminal(C16 diacid), des1, 30S, 31G]mimylin (peptide)
peptide: {C16 diacid}-ASELSTAALGRLSAELHELATLPRTETGSGSP-NH2
notes: mimylin derivative; des1 = residue 1 deleted; also called Ex. #49; 49
B10: [N-terminal(C16 diacid-gGlu), des1, 30S, 31G]mimylin (peptide)
peptide: {C16 diacid-γGlu}-ASELSTAALGRLSAELHELATLPRTETGSGSP-NH2
notes: mimylin derivative; des1 = residue 1 deleted; also called Ex. #47; 47
B11: [N-terminal(C20 diacid-gGlu-5xOEG), des1, 30S, 31G]mimylin (peptide)
peptide: {C20 diacid-γGlu-AEEA-AEEA-AEEA-AEEA-AEEA}-ASELSTAALGRLSAELHELATLPRTETGSGSP-NH2
notes: mimylin derivative; des1 = residue 1 deleted; also called Ex. #45; 45
B12: [N-terminal(C20 diacid-gGlu), 1A, 23Y, 30S, 31G]mimylin (peptide)
peptide: {C20 diacid-γGlu}-AASELSTAALGRLSAELHELATYPRTETGSGSP-NH2
SMILES: CC(C)C[C@H](NC(=O)[C@H](C)NC(=O)[C@H](C)NC(=O)[C@@H](NC(=O)[C@H](CO)NC(=O)[C@H](CC(C)C)NC(=O)[C@H](CCC(=O)O)NC(=O)[C@H](CO)NC(=O)[C@H](C)NC(=O)[C@H](C)NC(=O)CC[C@H](NC(=O)CCCCCCCCCCCCCCCCCCC(=O)O)C(=O)O)[C@@H](C)O)C(=O)NCC(=O)N[C@@H](CCCNC(=N)N)C(=O)N[C@@H](CC(C)C)C(=O)N[C@@H](CO)C(=O)N[C@@H](C)C(=O)N[C@@H](CCC(=O)O)C(=O)N[C@@H](CC(C)C)C(=O)N[C@@H](Cc1c[nH]cn1)C(=O)N[C@@H](CCC(=O)O)C(=O)N[C@@H](CC(C)C)C(=O)N[C@@H](C)C(=O)N[C@H](C(=O)N[C@@H](Cc1ccc(O)cc1)C(=O)N1CCC[C@H]1C(=O)N[C@@H](CCCNC(=N)N)C(=O)N[C@H](C(=O)N[C@@H](CCC(=O)O)C(=O)N[C@H](C(=O)NCC(=O)N[C@@H](CO)C(=O)NCC(=O)N[C@@H](CO)C(=O)N1CCC[C@H]1C(N)=O)[C@@H](C)O)[C@@H](C)O)[C@@H](C)O
notes: mimylin derivative; also called Ex. #57; 57
B13: [N-terminal(C18 diacid), des1, 30S, 31G]mimylin (peptide)
peptide: {C18 diacid}-ASELSTAALGRLSAELHELATLPRTETGSGSP-NH2
notes: mimylin derivative; des1 = residue 1 deleted; also called Ex. #48; 48
B14: [des1, 4K(C20 diacid-gGlu), 30S, 31G]mimylin (peptide)
peptide: ASK([γGlu-C20 diacid])LSTAALGRLSAELHELATLPRTETGSGSP-NH2
modifications: N-terminus assumed
SMILES: CC(C)C[C@H](NC(=O)[C@H](C)NC(=O)[C@H](C)NC(=O)[C@@H](NC(=O)[C@H](CO)NC(=O)[C@H](CC(C)C)NC(=O)[C@H](CCCCNC(=O)CC[C@H](NC(=O)CCCCCCCCCCCCCCCCCCC(=O)O)C(=O)O)NC(=O)[C@H](CO)NC(=O)[C@H](C)N)[C@@H](C)O)C(=O)NCC(=O)N[C@@H](CCCNC(=N)N)C(=O)N[C@@H](CC(C)C)C(=O)N[C@@H](CO)C(=O)N[C@@H](C)C(=O)N[C@@H](CCC(=O)O)C(=O)N[C@@H](CC(C)C)C(=O)N[C@@H](Cc1c[nH]cn1)C(=O)N[C@@H](CCC(=O)O)C(=O)N[C@@H](CC(C)C)C(=O)N[C@@H](C)C(=O)N[C@H](C(=O)N[C@@H](CC(C)C)C(=O)N1CCC[C@H]1C(=O)N[C@@H](CCCNC(=N)N)C(=O)N[C@H](C(=O)N[C@@H](CCC(=O)O)C(=O)N[C@H](C(=O)NCC(=O)N[C@@H](CO)C(=O)NCC(=O)N[C@@H](CO)C(=O)N1CCC[C@H]1C(N)=O)[C@@H](C)O)[C@@H](C)O)[C@@H](C)O

These molecules were tested against T1, human amylin receptor (amylin 3(a) …) (assay: SPA competition vs 125I-rat amylin, membranes with human CTR + RAMP-3 (Assay V)).

Row | IC50 | Molecule
1 | 159 pM | B1
2 | 773 pM | B2
3 | 164 pM | B3
4 | 297 pM | B4
5 | 54 pM | B5
6 | 516 pM | B6
7 | 390 pM | B7
8 | 371 pM | B8
9 | 15 pM | B9
10 | 37 pM | B10
11 | 389 pM | B11
12 | 124 pM | B12
13 | 77 pM | B13

These molecules were tested against T2, human calcitonin receptor (assay: SPA competition vs 125I-calcitonin, membranes with human CTR (Assay VII)).
Outline: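 SPA competition on membranes from BHK tk'ts 13 cells stably expressing human calcitonin receptor plus CRE-luciferase reporter; membranes 35 ng/μL final with 0.05 mg/well beads.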

Row | IC50 | Molecule
14 | 50 pM | B1
15 | 140 pM | B2
16 | 50 pM | B3
17 | 85 pM | B4
18 | 23 pM | B5
19 | 84 pM | B6
20 | 131 pM | B7
21 | 120 pM | B8
22 | 11 pM | B9
23 | 24 pM | B10
24 | 112 pM | B11
25 | 108 pM | B12
26 | 34 pM | B13

The molecules below were run against rat calcitonin receptor (rat) (UniProt P32214) (assay: SPA competition vs 125I-calcitonin, membranes with rat CTR (Assay VIII)).

Row | IC50 | Molecule
27 | 114 pM | B14
28 | 123 pM | {C14 diacid}-ASELSTAALGRLSAELHELATLPRTETGSGSP-NH2

These molecules were tested against rat amylin receptor (rat calcitonin receptor with rat RAMP 3) (rat) (UniProt P32214) (assay: SPA competition vs 125I-rat amylin, membranes with rat CTR + rat RAMP3 (Assay VI)).

Row | IC50 | Molecule
29 | 29 pM | [N-terminal(C20 diacid-gGlu-2xOEG), des1, 4G, 9V, 15Q, 21Q, 23Y, 30S, 31G, 32T, 33Y]mimylin (peptide)
